Assay results published in patent publication US20220401524A1.

How the values were obtained:
complement C1q (human) [1] = target: complement C1q (human) (UniProt P02745); experiment: flow cytometry, vWF on cholesterol crystals with C1q against crystals without C1q
complement C1q (human) [2] = target: complement C1q (human) (UniProt P02745); experiment: cell-based or functional assay
complement C1q (human) [3] = target: complement C1q (human) (UniProt P02745); experiment: flow cytometry, vWF (10 µg/ml) bound to C1q immobilized on cholesterol crystals, mean of n=5

UniProt P02745, sequence (P02745 23-245, chain 1 of 3): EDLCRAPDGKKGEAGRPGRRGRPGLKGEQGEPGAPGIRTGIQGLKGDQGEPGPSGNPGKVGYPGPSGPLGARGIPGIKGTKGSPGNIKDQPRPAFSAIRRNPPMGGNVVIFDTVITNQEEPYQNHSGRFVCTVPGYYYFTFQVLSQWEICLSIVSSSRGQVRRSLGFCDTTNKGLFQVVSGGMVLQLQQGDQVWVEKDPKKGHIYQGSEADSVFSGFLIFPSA
UniProt P02745, sequence (chain, as listed by the source, chain 2 of 3): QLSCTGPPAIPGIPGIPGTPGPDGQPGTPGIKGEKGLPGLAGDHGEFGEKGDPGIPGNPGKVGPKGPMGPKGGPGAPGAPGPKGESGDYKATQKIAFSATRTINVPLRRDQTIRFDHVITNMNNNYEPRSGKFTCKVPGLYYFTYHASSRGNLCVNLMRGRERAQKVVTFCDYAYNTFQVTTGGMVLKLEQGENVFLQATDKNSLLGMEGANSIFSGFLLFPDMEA
UniProt P02745, sequence (chain, as listed by the source, chain 3 of 3): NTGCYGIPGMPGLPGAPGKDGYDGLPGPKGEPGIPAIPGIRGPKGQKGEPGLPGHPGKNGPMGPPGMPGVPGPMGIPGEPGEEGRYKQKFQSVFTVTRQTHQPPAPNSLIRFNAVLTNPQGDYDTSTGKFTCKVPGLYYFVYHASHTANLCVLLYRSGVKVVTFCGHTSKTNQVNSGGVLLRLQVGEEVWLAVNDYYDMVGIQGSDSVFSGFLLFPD

fold gMFI against CC without C1q (complement C1q (human) [1]): 67 fold | caspase-1 activity of HMDMs (% CD11c+ cells in FLICA+ gate) (complement C1q (human) [2]): 9.37% | early phagocytosis of pHrodo-dyed CC complexes by HMDMs (30 min, % CD11c+ cells in pHrodo Red Ester+ gate) (complement C1q (human) [2]): 54.5% | late phagocytosis of CC complexes by HMDMs (18 hr, % CD11c+ cells in SSC high gate) (complement C1q (human) [2]): 13.7% | gMFI (complement C1q (human) [3]): 134000 gMFI
Substance: recombinant von Willebrand factor (from UniProt P04275 764-2813) (ligand)
